Test results: the supplement of paper PMC7125110
± gives the standard error. For some assays here: Variants at the floor of the assay were thinned out.

B1: glmS ribozyme (parent)
chain: AUAAAAGCGCCAGAACUACAGAAAUGUAGUUGACGAGGAGGAGGUUUAUCGAAUUUUCGGCGGAUGCCUCCAAA

Assays:
Conditions in all cases: with glucosamine-6-phosphate
[1] = variants of: B1; assay: kcat; higher = faster cleavage; RNA array
Method in brief: (§1)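 Over ~14 h at 37 °C, tiles were imaged as glucosamine-6-phosphate (40 μM to 10 mM) in HEPES/KCl/Mg(OAc)2 buffer flowed across sequenced MiSeq chips. The chips carried barcoded ribozyme variants transcribed in situ by E. coli RNA polymerase and tracked with a hybridised Cy3 probe. After normalisation to baseline and to non-cleaving reference variants, one- or two-exponential decay fits of per-tile medians gave kobs. kcat and KM followed from weighted Michaelis–Menten fits across concentrations.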

[2] = variants of: B1; assay: KM; higher = weaker cofactor use; RNA array
Method in brief: as §1

[3] = variants of: B1; assay: self-cleavage kobs at 640 uM GlcN6P; higher = faster cleavage; RNA array
Method in brief: as §1

[4] = variants of: B1; assay: self-cleavage kobs at 2500 uM GlcN6P; higher = faster cleavage; RNA array
Method in brief: as §1

[5] = variants of: B1; assay: self-cleavage kobs at 10000 uM GlcN6P; higher = faster cleavage; RNA array
Method in brief: as §1

[6] = variants of: B1; assay: self-cleavage kobs at 40 uM GlcN6P; higher = faster cleavage; RNA array
Method in brief: as §1

[7] = variants of: B1; assay: self-cleavage kobs at 160 uM GlcN6P; higher = faster cleavage; RNA array
Method in brief: as §1

Variant | kcat [1] [s⁻¹] | KM [2] [µM] | self-cleavage kobs at 640 uM GlcN6P [3] [s⁻¹] | self-cleavage kobs at 2500 uM GlcN6P [4] [s⁻¹] | self-cleavage kobs at 10000 uM GlcN6P [5] [s⁻¹] | self-cleavage kobs at 40 uM GlcN6P [6] [s⁻¹] | self-cleavage kobs at 160 uM GlcN6P [7] [s⁻¹]
G32U G40C | 0.000104 ± 1.3e-05 | 1250 ± 520 | 2.66e-05 ± 1.3e-05 | 7.79e-05 ± 1.1e-05 | 8.66e-05 ± 1.3e-05 | – | –
U31G U47A | 0.00848 ± 0.0027 | 2290 ± 990 | 0.00211 ± 0.00035 | 0.00332 ± 0.00063 | 0.00821 ± 0.0011 | 0.000201 ± 2.8e-05 | 0.000474 ± 7e-05
G29A G40U | 0.000248 ± 5.6e-05 | – | 8.95e-05 ± 1.9e-05 | 0.000207 ± 2.8e-05 | 0.000182 ± 4e-05 | – | –
A6C A53G | 0.000117 ± 1e-05 | 3110 ± 770 | 3.04e-05 ± 1.3e-05 | 4.95e-05 ± 7.6e-06 | 8.97e-05 ± 7.3e-06 | – | –
U30A C50U | 1.13e-05 ± 4.2e-06 | – | – | – | – | – | –
G32A A52C | < 1e-05 | 128 ± 28 | < 1e-05 | – | < 1e-05 | < 1e-05 | –
A64G G66A | 0.0158 ± 0.0059 | 936 ± 460 | 0.00554 ± 0.0008 | 0.0124 ± 0.0025 | 0.0215 ± 0.0052 | 0.000837 ± 9.3e-05 | 0.00197 ± 0.00028
G29C U46C | 9.55e-05 ± 4.5e-06 | 535 ± 120 | 5.09e-05 ± 1.5e-05 | 8.67e-05 ± 2.2e-05 | 8.84e-05 ± 1.4e-05 | – | –
U54C A64G | 0.016 ± 0.0067 | – | 0.00883 ± 0.0018 | 0.0287 ± 0.0082 | 0.0123 ± 0.0031 | 0.000616 ± 8.4e-05 | 0.00156 ± 0.00033
C10G C50A C71U | 1.87e-05 ± 3.4e-06 | – | – | – | < 1e-05 | – | –
C61G C67A | 2.67e-05 ± 6.5e-06 | – | 3.33e-05 ± 1.4e-05 | – | – | – | –
C16A U31A | 0.0016 ± 0.00038 | 3990 ± 1400 | 0.000194 ± 5.1e-05 | 0.000585 ± 0.00016 | 0.00119 ± 0.00027 | – | 8.65e-05 ± 2.4e-05
C16U A52C | 1.88e-05 ± 3.1e-06 | – | – | – | – | – | –
G32C U55C | 0.000106 ± 1.3e-05 | 7360 ± 1900 | – | 2.78e-05 ± 1.4e-05 | 6.12e-05 ± 1.1e-05 | – | < 1e-05
C16A U54C | 0.00231 ± 0.00079 | – | 0.000575 ± 0.00013 | 0.000967 ± 0.00025 | 0.00194 ± 0.00029 | 6.96e-05 ± 1.3e-05 | 0.000102 ± 2.6e-05
G29A C70G | 6.2e-05 ± 1.1e-05 | – | 5.96e-05 ± 1.1e-05 | 7.74e-05 ± 8.4e-06 | 4.28e-05 ± 8.6e-06 | – | 5.22e-05 ± 1.7e-05
G51U U55G | < 1e-05 | 76.4 ± 18 | – | – | < 1e-05 | – | –

Variant | kcat [1] [s⁻¹] | KM [2] [µM] | self-cleavage kobs at 640 uM GlcN6P [3] [s⁻¹] | self-cleavage kobs at 2500 uM GlcN6P [4] [s⁻¹] | self-cleavage kobs at 10000 uM GlcN6P [5] [s⁻¹] | self-cleavage kobs at 40 uM GlcN6P [6] [s⁻¹] | self-cleavage kobs at 160 uM GlcN6P [7] [s⁻¹]
U54G U69A | 0.000109 ± 1.4e-05 | – | 0.000146 ± 3e-05 | 9.9e-05 ± 1.8e-05 | 0.000103 ± 1.9e-05 | 5.13e-05 ± 1.4e-05 | –
C58A U65A | 1.58e-05 ± 1.9e-06 | – | – | – | – | – | –
A14U C16G | 0.000881 ± 0.00019 | 1840 ± 670 | 0.000263 ± 3.3e-05 | 0.000429 ± 6.7e-05 | 0.000865 ± 0.00015 | – | 5.83e-05 ± 1.7e-05
A14U G32A | 0.0126 ± 0.0035 | 3720 ± 1400 | 0.00156 ± 0.00027 | 0.00376 ± 0.0007 | 0.0102 ± 0.001 | 0.000167 ± 1.7e-05 | 0.00046 ± 0.00011
U31C G32A C58A U65G | 4.59e-05 ± 1e-06 | 2320 ± 190 | – | – | 3.72e-05 ± 1.4e-05 | – | –
A15G G40C | 0.00522 ± 0.0011 | 1800 ± 590 | 0.00122 ± 0.00017 | 0.0027 ± 0.00028 | 0.00506 ± 0.00049 | 0.000151 ± 1.6e-05 | 0.000354 ± 6.3e-05
G51A A53G | 1.13e-05 ± 5.2e-06 | – | – | – | – | – | –
U31A A42G U47A | 0.00933 ± 0.0047 | – | 0.00346 ± 0.001 | – | 0.00844 ± 0.0039 | 0.000345 ± 9.2e-05 | –
U30G C68G | 3.09e-05 ± 2.2e-06 | 120 ± 57 | – | 3.26e-05 ± 1.2e-05 | 2.71e-05 ± 1.3e-05 | – | –
C61G C71U | < 1e-05 | – | – | – | < 1e-05 | < 1e-05 | –
G7A A53U | 2.79e-05 ± 1.1e-05 | – | – | – | – | – | –
U47C A53U | 0.00157 ± 0.00025 | 1150 ± 280 | 0.000671 ± 0.00012 | 0.0012 ± 0.00023 | 0.00124 ± 0.00025 | 4.38e-05 ± 9.7e-06 | 0.000209 ± 4.6e-05
A15G U47G U55A | 0.0098 ± 0.003 | 1860 ± 850 | 0.00364 ± 0.0011 | 0.00474 ± 0.0016 | 0.00887 ± 0.003 | 0.000187 ± 5.9e-05 | –
A15C G44U | 4.07e-05 ± 6.1e-06 | – | – | – | – | < 1e-05 | < 1e-05
U31A C68U | 0.00143 ± 0.00043 | 2740 ± 1200 | 0.000477 ± 9.5e-05 | 0.000776 ± 0.00018 | 0.00105 ± 0.00019 | – | 6.73e-05 ± 1.4e-05
U46A U47C | 0.00192 ± 0.00044 | 2240 ± 840 | 0.00034 ± 5.6e-05 | 0.00121 ± 0.00021 | 0.00157 ± 0.00019 | 5.61e-05 ± 1.2e-05 | 0.000141 ± 2.8e-05
